Experimental data reported in the supplement of paper PMC5998384.

Columns and labels:
[1] = system: HeLa Kyoto; assay: thermal stability score vs G1/S (z-score of summed log2 fold changes over temperatures); higher = more thermally stable than in G1/S
[2] = system: HeLa Kyoto; assay: solubility change mitosis vs G1/S (difference of NP-40 vs SDS log2 ratios) (log2 ratio difference); higher = more soluble in mitosis
[3] = system: HeLa Kyoto; assay: solubility in G1/S (NP-40 vs SDS abundance) (log2 ratio); higher = more soluble; conditions: cell cycle stage: G1/S
[4] = system: HeLa Kyoto; assay: melting temperature (median over replicates), in situ; higher = more thermally stable
[5] = cell cycle stage: early G1 (4.5 h after nocodazole release)
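Wherever melting temperature (median over replicates), in situ is given: HeLa Kyoto cells synchronized by double thymidine or nocodazole block, proteins quantified by TMT10plex mass spectrometry, three independent biological replicates.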
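Wherever solubility change mitosis vs G1/S (difference of NP-40 vs SDS log2 ratios) is given: synchronized HeLa Kyoto cells (double thymidine block for G1/S, nocodazole release for mitosis), protein amounts in NP-40 versus SDS lysates quantified by mass spectrometry, three biological replicates.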
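Wherever solubility in G1/S (NP-40 vs SDS abundance) is given: HeLa Kyoto cells arrested at G1/S by double thymidine block, proteins quantified by TMT10plex mass spectrometry in mild NP-40 versus SDS extracts, three biological replicates.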
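Wherever thermal stability score vs G1/S (z-score of summed log2 fold changes over temperatures) is given: synchronized HeLa Kyoto cells, proteins quantified by TMT10plex mass spectrometry, three biological replicates, mitosis taken 0.5 h after nocodazole release, G1/S directly after double thymidine block.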

Sequence	thermal stability score [1, 5]	thermal stability score ([1]; cell cycle stage: mitosis)	solubility change mitosis (log2) [2]	solubility in G1/S (log2) [3]	melting temperature ([4]; cell cycle stage: G1/S)	melting temperature ([4]; cell cycle stage: mitosis)
MSKRLRSSEVCADCSGPDPSWASVNRGTFLCDECCSVHRSLGRHISQVRHLKHTPWPPTLLQMVETLYNNGANSIWEHSLLDPASIMSGRRKANPQDKVHPNKAEFIRAKYQMLAFVHRLPCRDDDSVTAKDLSKQLHSSVRTGNLETCLRLLSLGAQANFFHPEKGNTPLHVASKAGQILQAELLAVYGADPGTQDSSGKTPVDYARQGGHHELAERLVEIQYELTDRLAFYLCGRKPDHKNGQHFIIPQMADSSLDLSELAKAAKKKLQSLSNHLFEELAMDVYDEVDRRETDAVWLATQNHSALVTETTVVPFLPVNPEYSSTRNQGRQKLARFNAHEFATLVIDILSDAKRRQQGSSLSGSKDNVELILKTINNQHSVESQDNDQPDYDSVASDEDTDLETTASKTNRQKSLDSDLSDGPVTVQEFMEVKNALVASEAKIQQLMKVNNNLSDELRIMQKKLQTLQSENSNLRKQATTNVYQVQTGSEYTDTSNHSSLKRRPSARGSRPMSMYETGSGQKPYLPMGEASRPEESRMRLQPFPAHIGRSALVTSSSSLPSFPSTLSWSRDESARRASRLEKQNSTPESDYDNTPNDMEPDGMGSSRKGRQRSMVWPGDGLVPDTAEPHVAPSPTLPSTEDVIRKTEQITKNIQELLRAAQENKHDSYIPCSERIHVAVTEMAALFPKKPKSDMVRTSLRLLTSSAYRLQSECKKTLPGDPGSPTDVQLVTQQVIQCAYDIAKAAKQLVTITTKENNN [GIT2]	1.06	2.68	-0.13	0.317	48 °C	48.9 °C
MSKSESPKEPEQLRKLFIGGLSFETTDESLRSHFEQWGTLTDCVVMRDPNTKRSRGFGFVTYATVEEVDAAMNARPHKVDGRVVEPKRAVSREDSQRPGAHLTVKKIFVGGIKEDTEEHHLRDYFEQYGKIEVIEIMTDRGSGKKRGFAFVTFDDHDSVDKIVIQKYHTVNGHNCEVRKALSKQEMASASSSQRGRSGSGNFGGGRGGGFGGNDNFGRGGNFSGRGGFGGSRGGGGYGGSGDGYNGFGNDGGYGGGGPGYSGGSRGYGSGGQGYGNQGSGYGGSGSYDSYNNGGGGGFGGGSGSNFGGGGSYNDFGNYNNQSSNFGPMKGGNFGGRSSGPYGGGGQYFAKPRNQGGYGGSSSSSSYGSGRRF [HNRNPA1]	-0.92	1.18	0.275	-0.184	49.4 °C	50.1 °C
MSKSKDDAPHELESQFILRLPPEYASTVRRAVQSGHVNLKDRLTIELHPDGRHGIVRVDRVPLASKLVDLPCVMESLKTIDKKTFYKTADICQMLVSTVDGDLYPPVEEPVASTDPKASKKKDKDKEKKFIWNHGITLPLKNVRKRRFRKTAKKKYIESPDVEKEVKRLLSTDAEAVSTRWEIIAEDETKEAENQGLDISSPGMSGHRQGHDSLEHDELREIFNDLSSSSEDEDETQHQDEEDINIIDTEEDLERQLQDKLNESDEQHQENEGTNQLVMGIQKQIDNMKGKLQETQDRAKRQEDLIMKVENLALKNRFQAVLDELKQKEDREKEQLSSLQEELESLLEK [TAF7]	1.09	3.64	0.081	0.55	52 °C	51.6 °C
MSLADELLADLEEAAEEEEGGSYGEEEEEPAIEDVQEETQLDLSGDSVKTIAKLWDSKMFAEIMMKIEEYISKQAKASEVMGPVEAAPEYRVIVDANNLTVEIENELNIIHKFIRDKYSKRFPELESLVPNALDYIRTVKELGNSLDKCKNNENLQQILTNATIMVVSVTASTTQGQQLSEEELERLEEACDMALELNASKHRIYEYVESRMSFIAPNLSIIIGASTAAKIMGVAGGLTNLSKMPACNIMLLGAQRKTLSGFSSTSVLPHTGYIYHSDIVQSLPPDLRRKAARLVAAKCTLAARVDSFHESTEGKVGYELKDEIERKFDKWQEPPPVKQVKPLPAPLDGQRKKRGGRRYRKMKERLGLTEIRKQANRMSFGEIEEDAYQEDLGFSLGHLGKSGSGRVRQTQVNEATKARISKTLQRTLQKQSVVYGGKSTIRDRSSGTASSVAFTPLQGLEIVNPQAAEKKVAEANQKYFSSMAEFLKVKGEKSGLMST [PRPF31]	2.25	7.81	0.246	-0.0726	46.8 °C	48.3 °C
MSLLLYYALPALGSYAMLSIFFLRRPHLLHTPRAPTFRIRLGAHRGGSGELLENTMEAMENSMAQRSDLLELDCQLTRDRVVVVSHDENLCRQSGLNRDVGSLDFEDLPLYKEKLEVYFSPGHFAHGSDRRMVRLEDLFQRFPRTPMSVEIKGKNEELIREIAGLVRRYDRNEITIWASEKSSVMKKCKAANPEMPLSFTISRGFWVLLSYYLGLLPFIPIPEKFFFCFLPNIINRTYFPFSCSCLNQLLAVVSKWLIMRKSLIRHLEERGVQVVFWCLNEESDFEAAFSVGATGVITDYPTALRHYLDNHGPAARTS [GDPD3]	-0.274	0.35	-0.0964	-0.262	56.4 °C	55.1 °C
MSLLMISENVKLAREYALLGNYDSAMVYYQGVLDQMNKYLYSVKDTYLQQKWQQVWQEINVEAKHVKDIMKTLESFKLDSTPLKAAQHDLPASEGEVWSMPVPVERRPSPGPRKRQSSQYSDPKSHGNRPSTTVRVHRSSAQNVHNDRGKAVRCREKKEQNKGREEKNKSPAAVTEPETNKFDSTGYDKDLVEALERDIISQNPNVRWDDIADLVEAKKLLKEAVVLPMWMPEFFKGIRRPWKGVLMVGPPGTGKTLLAKAVATECKTTFFNVSSSTLTSKYRGESEKLVRLLFEMARFYSPATIFIDEIDSICSRRGTSEEHEASRRVKAELLVQMDGVGGTSENDDPSKMVMVLAATNFPWDIDEALRRRLEKRIYIPLPSAKGREELLRISLRELELADDVDLASIAENMEGYSGADITNVCRDASLMAMRRRIEGLTPEEIRNLSKEEMHMPTTMEDFEMALKKVSKSVSAADIERYEKWIFEFGSC [KATNA1]	0.0753	0.484	-0.000211	0.0763	51.4 °C	49.9 °C
MSLLQSALDFLAGPGSLGGASGRDQSDFVGQTVELGELRLRVRRVLAEGGFAFVYEAQDVGSGREYALKRLLSNEEEKNRAIIQEVCFMKKLSGHPNIVQFCSAASIGKEESDTGQAEFLLLTELCKGQLVEFLKKMESRGPLSCDTVLKIFYQTCRAVQHMHRQKPPIIHRDLKVENLLLSNQGTIKLCDFGSATTISHYPDYSWSAQRRALVEEEITRNTTPMYRTPEIIDLYSNFPIGEKQDIWALGCILYLLCFRQHPFEDGAKLRIVNGKYSIPPHDTQYTVFHSLIRAMLQVNPEERLSIAEVVHQLQEIAAARNVNPKSPITELLEQNGGYGSATLSRGPPPPVGPAGSGYSGGLALAEYDQPYGGFLDILRGGTERLFTNLKDTSSKVIQSVANYAKGDLDISYITSRIAVMSFPAEGVESALKNNIEDVRLFLDSKHPGHYAVYNLSPRTYRPSRFHNRVSECGWAARRAPHLHTLYNICRNMHAWLRQDHKNVCVVHCMDGRAASAVAVCSFLCFCRLFSTAEAAVYMFSMKRCPPGIWPSHKRYIEYMCDMVAEEPITPHSKPILVRAVVMTPVPLFSKQRSGCRPFCEVYVGDERVASTSQEYDKMRDFKIEDGKAVIPLGVTVQGDVLIVIYHARSTLGGRLQAKMASMKMFQIQFHTGFVPRNATTVKFAKYDLDACDIQEKYPDLFQVNLEVEVEPRDRPSREAPPWENSSMRGLNPKILFSSREEQQDILSKFGKPELPRQPGSTAQYDAGAGSPEAEPTDSDSPPSSSADASRFLHTLDWQEEKEAETGAENASSKESESALMEDRDESEVSDEGGSPISSEGQEPRADPEPPGLAAGLVQQDLVFEVETPAVLPEPVPQEDGVDLLGLHSEVGAGPAVPPQACKAPSSNTDLLSCLLGPPEAASQGPPEDLLSEDPLLLASPAPPLSVQSTPRGGPPAAADPFGPLLPSSGNNSQPCSNPDLFGEFLNSDSVTVPPSFPSAHSAPPPSCSADFLHLGDLPGEPSKMTASSSNPDLLGGWAAWTETAASAVAPTPATEGPLFSPGGQPAPCGSQASWTKSQNPDPFADLGDLSSGLQGSPAGFPPGGFIPKTATTPKGSSSWQTSRPPAQGASWPPQAKPPPKACTQPRPNYASNFSVIGAREERGVRAPSFAQKPKVSENDFEDLLSNQGFSSRSDKKGPKTIAEMRKQDLAKDTDPLKLKLLDWIEGKERNIRALLSTLHTVLWDGESRWTPVGMADLVAPEQVKKHYRRAVLAVHPDKAAGQPYEQHAKMIFMELNDAWSEFENQGSRPLF	0.76	1.62	-0.151	-0.0682	48.6 °C	48.9 °C
MSLRKQTPSDFLKQIIGRPVVVKLNSGVDYRGVLACLDGYMNIALEQTEEYVNGQLKNKYGDAFIRGNNVLYISTQKRRM [LSM6]	-1.66	-2.63	0.276	0.0787	57.7 °C	54 °C
MSLSENSVFAYESSVHSTNVLLSLNDQRKKDVLCDVTIFVEGQRFRAHRSVLAACSSYFHSRIVGQADGELNITLPEEVTVKGFEPLIQFAYTAKLILSKENVDEVCKCVEFLSVHNIEESCFQFLKFKFLDSTADQQECPRKKCFSSHCQKTDLKLSLLDQRDLETDEVEEFLENKNVQTPQCKLRRYQGNAKASPPLQDSASQTYESMCLEKDAALALPSLCPKYRKFQKAFGTDRVRTGESSVKDIHASVQPNERSENECLGGVPECRDLQVMLKCDESKLAMEPEETKKDPASQCPTEKSEVTPFPHNSSIDPHGLYSLSLLHTYDQYGDLNFAGMQNTTVLTEKPLSGTDVQEKTFGESQDLPLKSDLGTREDSSVASSDRSSVEREVAEHLAKGFWSDICSTDTPCQMQLSPAVAKDGSEQISQKRSECPWLGIRISESPEPGQRTFTTLSSVNCPFISTLSTEGCSSNLEIGNDDYVSEPQQEPCPYACVISLGDDSETDTEGDSESCSAREQECEVKLPFNAQRIISLSRNDFQSLLKMHKLTPEQLDCIHDIRRRSKNRIAAQRCRKRKLDCIQNLESEIEKLQSEKESLLKERDHILSTLGETKQNLTGLCQKVCKEAALSQEQIQILAKYSAADCPLSFLISEKDKSTPDGELALPSIFSLSDRPPAVLPPCARGNSEPGYARGQESQQMSTATSEQAGPAEQCRQSGGISDFCQQMTDKCTTDE [BACH1]	-0.135	-2.84	0.0971	-0.0438	53.6 °C	53.1 °C
MSLSRSEEMHRLTENVYKTIMEQFNPSLRNFIAMGKNYEKALAGVTYAAKGYFDALVKMGELASESQGSKELGDVLFQMAEVHRQIQNQLEEMLKSFHNELLTQLEQKVELDSRYLSAALKKYQTEQRSKGDALDKCQAELKKLRKKSQGSKNPQKYSDKELQYIDAISNKQGELENYVSDGYKTALTEERRRFCFLVEKQCAVAKNSAAYHSKGKELLAQKLPLWQQACADPSKIPERAVQLMQQVASNGATLPSALSASKSNLVISDPIPGAKPLPVPPELAPFVGRMSAQESTPIMNGVTGPDGEDYSPWADRKAAQPKSLSPPQSQSKLSDSYSNTLPVRKSVTPKNSYATTENKTLPRSSSMAAGLERNGRMRVKAIFSHAAGDNSTLLSFKEGDLITLLVPEARDGWHYGESEKTKMRGWFPFSYTRVLDSDGSDRLHMSLQQGKSSSTGNLLDKDDLAIPPPDYGAASRAFPAQTASGFKQRPYSVAVPAFSQGLDDYGARSMSRNPFAHVQLKPTVTNDRCDLSAQGPEGREHGDGSARTLAGR [BAIAP2]	0.524	0.515	0.0657	0.466	50.6 °C	51.2 °C
